Experiments:
[1] = molecular target: T1, 6H(hexa-histidine)-INI1/hSNF5 (human, UniProt Q12824 1-385); assay: pull-down; glutathione sepharose 4B beads with 5 µg GST or GST-SAP18, incubated with 2 µg His-IN or His-INI1, one at a time; 20 mM HEPES-KOH pH 6.8, 200 mM NaCl, 0.1 mM EDTA, 2-5 mM DTT, 0.1% IGEPAL, 100 µg/ml ethidium bromide, 10 U DNaseI; Western blot; settings: both partners purified
T1 construct: also called His-INI1; source: Ni-NTA and hydroxylapatite purified

[2] = molecular target: T1, 6H(hexa-histidine)-INI1/hSNF5; assay: pull-down; glutathione sepharose beads with GST-SAP18 incubated with purified IN and INI1 together; Western blot; settings: both partners purified

T1 sequence (Q12824 whole entry): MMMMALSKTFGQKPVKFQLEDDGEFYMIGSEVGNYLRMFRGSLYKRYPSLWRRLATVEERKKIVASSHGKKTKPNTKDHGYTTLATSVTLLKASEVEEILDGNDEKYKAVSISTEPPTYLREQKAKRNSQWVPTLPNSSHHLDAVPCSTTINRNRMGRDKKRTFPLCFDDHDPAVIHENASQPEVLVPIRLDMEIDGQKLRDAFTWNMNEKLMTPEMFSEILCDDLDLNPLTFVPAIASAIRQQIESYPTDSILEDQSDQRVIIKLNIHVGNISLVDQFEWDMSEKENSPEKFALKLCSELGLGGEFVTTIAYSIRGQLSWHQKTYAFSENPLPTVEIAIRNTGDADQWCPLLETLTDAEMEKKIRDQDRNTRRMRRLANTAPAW

B1: GST-SAP18 (natural protein, UniProt O00422 1-153, looked up)
chain: MAVESRVTQEEIKKEPEKPIDREKTCPLLLRVFTTNNGRHHRMDEFSRGNVPSSELQIYTWMDATLKELTSLVKEVYPEARKKGTHFNFAIVFTDVKRPGYRVKEIGSTMSGRKGTDDSMTLQSQKFQIGDYLDIAITPPNRAPPPSGRMRPY
notes: also called GST (glutathione-S-transferase)-SAP18; pGEX-SAP18
binding result [1]: binds
binding result [2]: binds
